Laboratory results published in publication PMC12487280.

What was measured:
[1] = CHX-chase, Western blot, ccRCC cells; details: glycan lost; control: WT / shCtrl / untreated
[2] = Western blot of UBAP2L, ccRCC cells; details: control: shCtrl / untreated
qPCR, 786-O and Caki-1 = details: glycan lost; control: UBAP2L-WT overexpression
[3] = Flag IP, HA-Ub blot, MG132; details: control: shCtrl

B1: UBAP2L: OGT knockdown (protein)
parent chain: MMTSVGTNRARGNWEQPQNQNQTQHKQRPQATAEQIRLAQMISDHNDADFEEKVKQLIDITGKNQDECVIALHDCNGDVNRAINVLLEGNPDTHSWEMVGKKKGVSGQKDGGQTESNEEGKENRDRDRDYSRRRGGPPRRGRGASRGREFRGQENGLDGTKSGGPSGRGTERGRRGRGRGRGGSGRRGGRFSAQGMGTFNPADYAEPANTDDNYGNSSGNTWNNTGHFEPDDGTSAWRTATEEWGTEDWNEDLSETKIFTASNVSSVPLPAENVTITAGQRIDLAVLLGKTPSTMENDSSNLDPSQAPSLAQPLVFSNSKQTAISQPASGNTFSHHSMVSMLGKGFGDVGEAKGGSTTGSQFLEQFKTAQALAQLAAQHSQSGSTTTSSWDMGSTTQSPSLVQYDLKNPSDSAVHSPFTKRQAFTPSSTMMEVFLQEKSPAVATSTAAPPPPSSPLPSKSTSAPQMSPGSSDNQSSSPQPAQQKLKQQKKKASLTSKIPALAVEMPGSADISGLNLQFGALQFGSEPVLSDYESTPTTSASSSQAPSSLYTSTASESSSTISSNQSQESGYQSGPIQSTTYTSQNNAQGPLYEQRSTQTRRYPSSISSSPQKDLTQAKNGFSSVQATQLQTTQSVEGATGSAVKSDSPSTSSIPPLNETVSAASLLTTTNQHSSSLGGLSHSEEIPNTTTTQHSSTLSTQQNTLSSSTSSGRTSTSTLLHTSVESEANLHSSSSTFSTTSSTVSAPPPVVSVSSSLNSGSSLGLSLGSNSTVTASTRSSVATTSGKAPPNLPPGVPPLLPNPYIMAPGLLHAYPPQVYGYDDLQMLQTRFPLDYYSIPFPTPTTPLTGRDGSLASNPYSGDLTKFGRGDASSPAPATTLAQPQQNQTQTHHTTQQTFLNPALPPGYSYTSLPYYTGVPGLPSTFQYGPAVFPVAPTSSKQHGVNVSVNASATPFQQPSGYGSHGYNTGVSVTSSNTGVPDISGSVYSKTQQSFEKQGFHSGTPAASFNLPSALGSGGPINPATAAAYPPAPFMHILTPHQQPHSQILHHHLQQDGQTGSGQRSQTSSIPQKPQTNKSAYNSYSWGAN
degradation_or_half_life [1]: decreases | expression_or_secretion ([2]; glycan lost): decreases

B2: UBAP2L: UBAP2L-MUT (S305A) (protein)
parent chain: MMTSVGTNRARGNWEQPQNQNQTQHKQRPQATAEQIRLAQMISDHNDADFEEKVKQLIDITGKNQDECVIALHDCNGDVNRAINVLLEGNPDTHSWEMVGKKKGVSGQKDGGQTESNEEGKENRDRDRDYSRRRGGPPRRGRGASRGREFRGQENGLDGTKSGGPSGRGTERGRRGRGRGRGGSGRRGGRFSAQGMGTFNPADYAEPANTDDNYGNSSGNTWNNTGHFEPDDGTSAWRTATEEWGTEDWNEDLSETKIFTASNVSSVPLPAENVTITAGQRIDLAVLLGKTPSTMENDSSNLDPSQAPSLAQPLVFSNSKQTAISQPASGNTFSHHSMVSMLGKGFGDVGEAKGGSTTGSQFLEQFKTAQALAQLAAQHSQSGSTTTSSWDMGSTTQSPSLVQYDLKNPSDSAVHSPFTKRQAFTPSSTMMEVFLQEKSPAVATSTAAPPPPSSPLPSKSTSAPQMSPGSSDNQSSSPQPAQQKLKQQKKKASLTSKIPALAVEMPGSADISGLNLQFGALQFGSEPVLSDYESTPTTSASSSQAPSSLYTSTASESSSTISSNQSQESGYQSGPIQSTTYTSQNNAQGPLYEQRSTQTRRYPSSISSSPQKDLTQAKNGFSSVQATQLQTTQSVEGATGSAVKSDSPSTSSIPPLNETVSAASLLTTTNQHSSSLGGLSHSEEIPNTTTTQHSSTLSTQQNTLSSSTSSGRTSTSTLLHTSVESEANLHSSSSTFSTTSSTVSAPPPVVSVSSSLNSGSSLGLSLGSNSTVTASTRSSVATTSGKAPPNLPPGVPPLLPNPYIMAPGLLHAYPPQVYGYDDLQMLQTRFPLDYYSIPFPTPTTPLTGRDGSLASNPYSGDLTKFGRGDASSPAPATTLAQPQQNQTQTHHTTQQTFLNPALPPGYSYTSLPYYTGVPGLPSTFQYGPAVFPVAPTSSKQHGVNVSVNASATPFQQPSGYGSHGYNTGVSVTSSNTGVPDISGSVYSKTQQSFEKQGFHSGTPAASFNLPSALGSGGPINPATAAAYPPAPFMHILTPHQQPHSQILHHHLQQDGQTGSGQRSQTSSIPQKPQTNKSAYNSYSWGAN
other: Melk mRNA level (qPCR, 786-O and Caki-1): decreases

B3: UBAP2L: shOGA (protein)
parent chain: MMTSVGTNRARGNWEQPQNQNQTQHKQRPQATAEQIRLAQMISDHNDADFEEKVKQLIDITGKNQDECVIALHDCNGDVNRAINVLLEGNPDTHSWEMVGKKKGVSGQKDGGQTESNEEGKENRDRDRDYSRRRGGPPRRGRGASRGREFRGQENGLDGTKSGGPSGRGTERGRRGRGRGRGGSGRRGGRFSAQGMGTFNPADYAEPANTDDNYGNSSGNTWNNTGHFEPDDGTSAWRTATEEWGTEDWNEDLSETKIFTASNVSSVPLPAENVTITAGQRIDLAVLLGKTPSTMENDSSNLDPSQAPSLAQPLVFSNSKQTAISQPASGNTFSHHSMVSMLGKGFGDVGEAKGGSTTGSQFLEQFKTAQALAQLAAQHSQSGSTTTSSWDMGSTTQSPSLVQYDLKNPSDSAVHSPFTKRQAFTPSSTMMEVFLQEKSPAVATSTAAPPPPSSPLPSKSTSAPQMSPGSSDNQSSSPQPAQQKLKQQKKKASLTSKIPALAVEMPGSADISGLNLQFGALQFGSEPVLSDYESTPTTSASSSQAPSSLYTSTASESSSTISSNQSQESGYQSGPIQSTTYTSQNNAQGPLYEQRSTQTRRYPSSISSSPQKDLTQAKNGFSSVQATQLQTTQSVEGATGSAVKSDSPSTSSIPPLNETVSAASLLTTTNQHSSSLGGLSHSEEIPNTTTTQHSSTLSTQQNTLSSSTSSGRTSTSTLLHTSVESEANLHSSSSTFSTTSSTVSAPPPVVSVSSSLNSGSSLGLSLGSNSTVTASTRSSVATTSGKAPPNLPPGVPPLLPNPYIMAPGLLHAYPPQVYGYDDLQMLQTRFPLDYYSIPFPTPTTPLTGRDGSLASNPYSGDLTKFGRGDASSPAPATTLAQPQQNQTQTHHTTQQTFLNPALPPGYSYTSLPYYTGVPGLPSTFQYGPAVFPVAPTSSKQHGVNVSVNASATPFQQPSGYGSHGYNTGVSVTSSNTGVPDISGSVYSKTQQSFEKQGFHSGTPAASFNLPSALGSGGPINPATAAAYPPAPFMHILTPHQQPHSQILHHHLQQDGQTGSGQRSQTSSIPQKPQTNKSAYNSYSWGAN
other: ubiquitination ([3]; glycan gained): decreases

B4: UBAP2L: OGA knockdown (protein)
parent chain: MMTSVGTNRARGNWEQPQNQNQTQHKQRPQATAEQIRLAQMISDHNDADFEEKVKQLIDITGKNQDECVIALHDCNGDVNRAINVLLEGNPDTHSWEMVGKKKGVSGQKDGGQTESNEEGKENRDRDRDYSRRRGGPPRRGRGASRGREFRGQENGLDGTKSGGPSGRGTERGRRGRGRGRGGSGRRGGRFSAQGMGTFNPADYAEPANTDDNYGNSSGNTWNNTGHFEPDDGTSAWRTATEEWGTEDWNEDLSETKIFTASNVSSVPLPAENVTITAGQRIDLAVLLGKTPSTMENDSSNLDPSQAPSLAQPLVFSNSKQTAISQPASGNTFSHHSMVSMLGKGFGDVGEAKGGSTTGSQFLEQFKTAQALAQLAAQHSQSGSTTTSSWDMGSTTQSPSLVQYDLKNPSDSAVHSPFTKRQAFTPSSTMMEVFLQEKSPAVATSTAAPPPPSSPLPSKSTSAPQMSPGSSDNQSSSPQPAQQKLKQQKKKASLTSKIPALAVEMPGSADISGLNLQFGALQFGSEPVLSDYESTPTTSASSSQAPSSLYTSTASESSSTISSNQSQESGYQSGPIQSTTYTSQNNAQGPLYEQRSTQTRRYPSSISSSPQKDLTQAKNGFSSVQATQLQTTQSVEGATGSAVKSDSPSTSSIPPLNETVSAASLLTTTNQHSSSLGGLSHSEEIPNTTTTQHSSTLSTQQNTLSSSTSSGRTSTSTLLHTSVESEANLHSSSSTFSTTSSTVSAPPPVVSVSSSLNSGSSLGLSLGSNSTVTASTRSSVATTSGKAPPNLPPGVPPLLPNPYIMAPGLLHAYPPQVYGYDDLQMLQTRFPLDYYSIPFPTPTTPLTGRDGSLASNPYSGDLTKFGRGDASSPAPATTLAQPQQNQTQTHHTTQQTFLNPALPPGYSYTSLPYYTGVPGLPSTFQYGPAVFPVAPTSSKQHGVNVSVNASATPFQQPSGYGSHGYNTGVSVTSSNTGVPDISGSVYSKTQQSFEKQGFHSGTPAASFNLPSALGSGGPINPATAAAYPPAPFMHILTPHQQPHSQILHHHLQQDGQTGSGQRSQTSSIPQKPQTNKSAYNSYSWGAN
expression_or_secretion ([2]; glycan gained): increases

B5: UBAP2L: shOGT (protein)
parent chain: MMTSVGTNRARGNWEQPQNQNQTQHKQRPQATAEQIRLAQMISDHNDADFEEKVKQLIDITGKNQDECVIALHDCNGDVNRAINVLLEGNPDTHSWEMVGKKKGVSGQKDGGQTESNEEGKENRDRDRDYSRRRGGPPRRGRGASRGREFRGQENGLDGTKSGGPSGRGTERGRRGRGRGRGGSGRRGGRFSAQGMGTFNPADYAEPANTDDNYGNSSGNTWNNTGHFEPDDGTSAWRTATEEWGTEDWNEDLSETKIFTASNVSSVPLPAENVTITAGQRIDLAVLLGKTPSTMENDSSNLDPSQAPSLAQPLVFSNSKQTAISQPASGNTFSHHSMVSMLGKGFGDVGEAKGGSTTGSQFLEQFKTAQALAQLAAQHSQSGSTTTSSWDMGSTTQSPSLVQYDLKNPSDSAVHSPFTKRQAFTPSSTMMEVFLQEKSPAVATSTAAPPPPSSPLPSKSTSAPQMSPGSSDNQSSSPQPAQQKLKQQKKKASLTSKIPALAVEMPGSADISGLNLQFGALQFGSEPVLSDYESTPTTSASSSQAPSSLYTSTASESSSTISSNQSQESGYQSGPIQSTTYTSQNNAQGPLYEQRSTQTRRYPSSISSSPQKDLTQAKNGFSSVQATQLQTTQSVEGATGSAVKSDSPSTSSIPPLNETVSAASLLTTTNQHSSSLGGLSHSEEIPNTTTTQHSSTLSTQQNTLSSSTSSGRTSTSTLLHTSVESEANLHSSSSTFSTTSSTVSAPPPVVSVSSSLNSGSSLGLSLGSNSTVTASTRSSVATTSGKAPPNLPPGVPPLLPNPYIMAPGLLHAYPPQVYGYDDLQMLQTRFPLDYYSIPFPTPTTPLTGRDGSLASNPYSGDLTKFGRGDASSPAPATTLAQPQQNQTQTHHTTQQTFLNPALPPGYSYTSLPYYTGVPGLPSTFQYGPAVFPVAPTSSKQHGVNVSVNASATPFQQPSGYGSHGYNTGVSVTSSNTGVPDISGSVYSKTQQSFEKQGFHSGTPAASFNLPSALGSGGPINPATAAAYPPAPFMHILTPHQQPHSQILHHHLQQDGQTGSGQRSQTSSIPQKPQTNKSAYNSYSWGAN
other: ubiquitination ([3]; glycan lost): increases
